Test results: patent US20030229005A1 (BIOZYME, published 2003)
*1 amine or outer side, *2 acyl side, *3 side chain or, on linkers, in order; H or OH if unused. [ ]: non-standard residue; d: D form. The star is where a group is joined. Dnp = O=[N+]([O-])c1ccc(*)c([N+](=O)[O-])c1; C(Me) = CSC[C@H](N[*:1])C(=O)[*:2]

T1: human Gelatinase-A (human, UniProt P08253 110-660, limits assumed)
T1 sequence (looked up): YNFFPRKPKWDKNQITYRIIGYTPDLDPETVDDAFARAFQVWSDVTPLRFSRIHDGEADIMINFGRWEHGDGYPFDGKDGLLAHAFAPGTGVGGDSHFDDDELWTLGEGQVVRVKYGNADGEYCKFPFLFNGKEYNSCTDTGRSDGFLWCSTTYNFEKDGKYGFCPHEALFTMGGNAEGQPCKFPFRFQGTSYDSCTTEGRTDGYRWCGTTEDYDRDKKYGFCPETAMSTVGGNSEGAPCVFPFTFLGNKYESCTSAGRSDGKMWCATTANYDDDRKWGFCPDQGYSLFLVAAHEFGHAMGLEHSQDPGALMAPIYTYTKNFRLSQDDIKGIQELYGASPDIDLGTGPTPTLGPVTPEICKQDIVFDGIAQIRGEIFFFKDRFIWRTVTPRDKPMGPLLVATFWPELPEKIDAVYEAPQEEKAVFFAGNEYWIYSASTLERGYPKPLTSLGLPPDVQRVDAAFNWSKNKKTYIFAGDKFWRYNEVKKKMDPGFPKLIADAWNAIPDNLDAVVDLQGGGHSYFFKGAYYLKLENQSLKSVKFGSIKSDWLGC

T2: collagenase 1 (UniProt P03956 100-469, limits assumed)
T2 sequence (looked up): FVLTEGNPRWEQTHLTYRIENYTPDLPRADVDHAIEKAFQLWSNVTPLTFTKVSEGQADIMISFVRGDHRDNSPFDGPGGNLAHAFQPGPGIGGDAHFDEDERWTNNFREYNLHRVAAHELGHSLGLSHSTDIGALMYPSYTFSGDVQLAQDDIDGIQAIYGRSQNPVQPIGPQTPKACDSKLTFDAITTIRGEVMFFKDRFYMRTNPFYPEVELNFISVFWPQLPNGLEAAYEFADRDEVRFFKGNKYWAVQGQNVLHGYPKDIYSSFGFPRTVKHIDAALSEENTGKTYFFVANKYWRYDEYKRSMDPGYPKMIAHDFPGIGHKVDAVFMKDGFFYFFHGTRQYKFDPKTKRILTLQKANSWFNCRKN


Tests used:
Test in all cases: cell-based or functional assay
[1] = biological target: T1, human Gelatinase-A
[2] = biological target: gelatinase B (UniProt P14780 107-707, limits assumed)
Sequence of gelatinase B (P14780 107-707 limits assumed): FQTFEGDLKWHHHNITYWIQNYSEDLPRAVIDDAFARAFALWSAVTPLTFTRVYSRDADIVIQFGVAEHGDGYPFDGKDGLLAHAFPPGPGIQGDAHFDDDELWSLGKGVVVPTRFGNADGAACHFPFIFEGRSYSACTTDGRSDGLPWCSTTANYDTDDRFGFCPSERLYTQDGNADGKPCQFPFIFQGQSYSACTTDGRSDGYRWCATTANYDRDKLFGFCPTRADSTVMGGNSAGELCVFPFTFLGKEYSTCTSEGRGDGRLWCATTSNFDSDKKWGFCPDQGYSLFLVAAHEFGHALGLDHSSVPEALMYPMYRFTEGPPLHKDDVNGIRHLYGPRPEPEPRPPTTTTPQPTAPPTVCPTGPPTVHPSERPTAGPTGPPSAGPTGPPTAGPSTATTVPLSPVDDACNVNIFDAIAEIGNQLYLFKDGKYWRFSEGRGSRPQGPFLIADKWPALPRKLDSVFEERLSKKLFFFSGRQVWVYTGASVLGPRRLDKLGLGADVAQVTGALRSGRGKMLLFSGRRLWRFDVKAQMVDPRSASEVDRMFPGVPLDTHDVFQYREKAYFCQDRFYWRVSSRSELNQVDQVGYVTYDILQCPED

[3] = biological target: T2, collagenase 1
[4] = biological target: stromelysin 1 (UniProt P08254 100-477, limits assumed)
Sequence of stromelysin 1 (P08254 100-477 limits assumed): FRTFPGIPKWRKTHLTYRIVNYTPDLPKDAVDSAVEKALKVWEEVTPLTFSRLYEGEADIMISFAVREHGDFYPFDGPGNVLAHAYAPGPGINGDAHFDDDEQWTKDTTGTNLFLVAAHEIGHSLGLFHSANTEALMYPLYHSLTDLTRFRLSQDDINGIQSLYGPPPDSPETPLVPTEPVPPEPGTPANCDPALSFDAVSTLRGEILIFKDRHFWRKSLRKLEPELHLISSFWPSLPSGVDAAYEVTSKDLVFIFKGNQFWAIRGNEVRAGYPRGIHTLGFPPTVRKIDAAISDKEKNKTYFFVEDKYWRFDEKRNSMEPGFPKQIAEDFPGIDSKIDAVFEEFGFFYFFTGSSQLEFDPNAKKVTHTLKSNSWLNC

Row | Binder | Selectivity v. Coll-3 [1] [unitless] | Selectivity v. Coll-3 [2] [unitless] | Selectivity v. Coll-3 [3] [unitless] | Selectivity v. Coll-3 [4] [unitless] | further results
1 | Dnp-PINLHG-NH2 (SMILES CC[C@H](C)[C@H](NC(=O)[C@@H]1CCCN1c1ccc([N+](=O)[O-])cc1[N+](=O)[O-])C(=O)N[C@@H](CC(N)=O)C(=O)N[C@@H](CC(C)C)C(=O)N[C@@H](Cc1c[nH]cn1)C(=O)NCC(N)=O) [Dnp-PINLHG-NH2] | 9 | 4 | 101 | 824 | –
2 | Dnp-PLGMRG-NH2 (SMILES CSCC[C@H](NC(=O)CNC(=O)[C@H](CC(C)C)NC(=O)[C@@H]1CCCN1c1ccc([N+](=O)[O-])cc1[N+](=O)[O-])C(=O)N[C@@H](CCCNC(=N)N)C(=O)NCC(N)=O) [Dnp-PLGMRG-NH2] | 2 | 1 | 73 | – | –
3 | Dnp-PSGIHL-NH2 (SMILES CC[C@H](C)[C@H](NC(=O)CNC(=O)[C@H](CO)NC(=O)[C@@H]1CCCN1c1ccc([N+](=O)[O-])cc1[N+](=O)[O-])C(=O)N[C@@H](Cc1c[nH]cn1)C(=O)N[C@@H](CC(C)C)C(N)=O) [Dnp-PSGIHL-NH2] | 2 | 2 | 1320 | – | –
4 | Dnp-GPLGMRG-NH2 (SMILES CSCC[C@H](NC(=O)CNC(=O)[C@H](CC(C)C)NC(=O)[C@@H]1CCCN1C(=O)CNc1ccc([N+](=O)[O-])cc1[N+](=O)[O-])C(=O)N[C@@H](CCCNC(=N)N)C(=O)NCC(N)=O) [Dnp-GPLGMRG-NH2] | – | – | – | – | Selectivity v. Coll-3, + 1:1 Gelatin [1]: 41 unitless; Selectivity v. Coll-3, + 1:4 Gelatin [1]: 46 unitless; Selectivity v. Coll-3, + 1:16 Gelatin [1]: 84 unitless; Selectivity v. Coll-3, + 1:64 Gelatin [1]: 69 unitless; Selectivity v. Coll-3, + 1:256 Gelatin [1]: 73 unitless; Selectivity v. Coll-3, + H2O [1]: 6 unitless; Selectivity v. Coll-3, + 1:1 Gelatin [2]: 5 unitless; Selectivity v. Coll-3, + 1:4 Gelatin [2]: 5 unitless; Selectivity v. Coll-3, + 1:16 Gelatin [2]: 13 unitless; Selectivity v. Coll-3, + 1:64 Gelatin [2]: 13 unitless; Selectivity v. Coll-3, + 1:256 Gelatin [2]: 18 unitless; Selectivity v. Coll-3, + H2O [2]: 2 unitless; Selectivity v. Coll-3, + 1:1 Gelatin [3]: 91 unitless; Selectivity v. Coll-3, + 1:4 Gelatin [3]: 96 unitless; Selectivity v. Coll-3, + 1:16 Gelatin [3]: 215 unitless; Selectivity v. Coll-3, + 1:64 Gelatin [3]: 236 unitless; Selectivity v. Coll-3, + 1:256 Gelatin [3]: 378 unitless; Selectivity v. Coll-3, + H2O [3]: 245 unitless
5 | Dnp-GPINLHG-NH2 (SMILES CC[C@H](C)[C@H](NC(=O)[C@@H]1CCCN1C(=O)CNc1ccc([N+](=O)[O-])cc1[N+](=O)[O-])C(=O)N[C@@H](CC(N)=O)C(=O)N[C@@H](CC(C)C)C(=O)N[C@@H](Cc1c[nH]cn1)C(=O)NCC(N)=O) [Dnp-GPINLHG-NH2] | 28 | 15 | 180 | 1110 | –
6 | Dnp-GPFGLKG-NH2 (SMILES CC(C)C[C@H](NC(=O)CNC(=O)[C@H](Cc1ccccc1)NC(=O)[C@@H]1CCCN1C(=O)CNc1ccc([N+](=O)[O-])cc1[N+](=O)[O-])C(=O)N[C@@H](CCCCN)C(=O)NCC(N)=O) [Dnp-GPFGLKG-NH2] | 26 | 3 | 408 | 1380 | –
7 | Dnp-GPHPMRG-NH2 (SMILES CSCC[C@H](NC(=O)[C@@H]1CCCN1C(=O)[C@H](Cc1c[nH]cn1)NC(=O)[C@@H]1CCCN1C(=O)CNc1ccc([N+](=O)[O-])cc1[N+](=O)[O-])C(=O)N[C@@H](CCCNC(=N)N)C(=O)NCC(N)=O) [Dnp-GPHPMRG-NH2] | 12 | 4 | 526 | 287 | –
8 | Dnp-GPLQMRG-NH2 (SMILES CSCC[C@H](NC(=O)[C@H](CCC(N)=O)NC(=O)[C@H](CC(C)C)NC(=O)[C@@H]1CCCN1C(=O)CNc1ccc([N+](=O)[O-])cc1[N+](=O)[O-])C(=O)N[C@@H](CCCNC(=N)N)C(=O)NCC(N)=O) [Dnp-GPLQMRG-NH2] | 15 | 1 | 290 | 311 | –
9 | Dnp-DEGPMGLK[C(Me)]YLG-NH2 (SMILES CSCC[C@H](NC(=O)[C@@H]1CCCN1C(=O)CNC(=O)[C@H](CCC(=O)O)NC(=O)[C@H](CC(=O)O)Nc1ccc([N+](=O)[O-])cc1[N+](=O)[O-])C(=O)NCC(=O)N[C@@H](CC(C)C)C(=O)N[C@@H](CCCCN)C(=O)N[C@@H](CSC)C(=O)N[C@@H](Cc1ccc(O)cc1)C(=O)N[C@@H](CC(C)C)C(=O)NCC(N)=O) [Dnp-…(Me)YLG-NH2] | 9 | 4 | 452 | 468 | –
10 | Dnp-GPVNLHGR[C(Me)]-NH2 (SMILES CSC[C@H](NC(=O)[C@H](CCCNC(=N)N)NC(=O)CNC(=O)[C@H](Cc1c[nH]cn1)NC(=O)[C@H](CC(C)C)NC(=O)[C@H](CC(N)=O)NC(=O)[C@@H](NC(=O)[C@@H]1CCCN1C(=O)CNc1ccc([N+](=O)[O-])cc1[N+](=O)[O-])C(C)C)C(N)=O) [Dnp-…(Me)-NH2] | 9 | 2 | 2120 | 510 | –
11 | Dnp-GPVNLHG[C(Me)]-NH2 (SMILES CSC[C@H](NC(=O)CNC(=O)[C@H](Cc1c[nH]cn1)NC(=O)[C@H](CC(C)C)NC(=O)[C@H](CC(N)=O)NC(=O)[C@@H](NC(=O)[C@@H]1CCCN1C(=O)CNc1ccc([N+](=O)[O-])cc1[N+](=O)[O-])C(C)C)C(N)=O) [Dnp-GPVNLHGC(Me)-NH2] | 15 | 3 | 1390 | 770 | –
12 | Dnp-V[C(Me)]PKGITS[C(Me)]VFR-NH2 (SMILES CC[C@H](C)[C@H](NC(=O)CNC(=O)[C@H](CCCCN)NC(=O)[C@@H]1CCCN1C(=O)[C@H](CSC)NC(=O)[C@@H](Nc1ccc([N+](=O)[O-])cc1[N+](=O)[O-])C(C)C)C(=O)N[C@H](C(=O)N[C@@H](CO)C(=O)N[C@@H](CSC)C(=O)N[C@H](C(=O)N[C@@H](Cc1ccccc1)C(=O)N[C@@H](CCCNC(=N)N)C(N)=O)C(C)C)[C@@H](C)O) [Dnp-VC(Me)PKGITSC(Me)VFR-NH2] | 7 | 1 | 215 | 835 | –
13 | Dnp-GPSELKG-NH2 (SMILES CC(C)C[C@H](NC(=O)[C@H](CCC(=O)O)NC(=O)[C@H](CO)NC(=O)[C@@H]1CCCN1C(=O)CNc1ccc([N+](=O)[O-])cc1[N+](=O)[O-])C(=O)N[C@@H](CCCCN)C(=O)NCC(N)=O) [Dnp-GPSELKG-NH2] | 7 | 4 | 470 | 831 | –
14 | Dnp-GPRPFRG-NH2 (SMILES N=C(N)NCCC[C@H](NC(=O)[C@H](Cc1ccccc1)NC(=O)[C@@H]1CCCN1C(=O)[C@H](CCCNC(=N)N)NC(=O)[C@@H]1CCCN1C(=O)CNc1ccc([N+](=O)[O-])cc1[N+](=O)[O-])C(=O)NCC(N)=O) [Dnp-GPRPFRG-NH2] | 9 | 4 | 4200 | – | –
15 | Dnp-GPLSISG-NH2 (SMILES CC[C@H](C)[C@H](NC(=O)[C@H](CO)NC(=O)[C@H](CC(C)C)NC(=O)[C@@H]1CCCN1C(=O)CNc1ccc([N+](=O)[O-])cc1[N+](=O)[O-])C(=O)N[C@@H](CO)C(=O)NCC(N)=O) [Dnp-GPLSISG-NH2] | 7 | 1 | 11 | – | –
16 | Dnp-GPMSYNG-NH2 (SMILES CSCC[C@H](NC(=O)[C@@H]1CCCN1C(=O)CNc1ccc([N+](=O)[O-])cc1[N+](=O)[O-])C(=O)N[C@@H](CO)C(=O)N[C@@H](Cc1ccc(O)cc1)C(=O)N[C@@H](CC(N)=O)C(=O)NCC(N)=O) [Dnp-GPMSYNG-NH2] | 5 | 3 | 201 | – | –
